Experimental data from the supplement of paper PMC9732359.
± gives the uncertainty stated by the source.

Test: protein stability index of a GFP-peptide fusion (yeast GPS) (PSI 1-4); higher = more stable; sorted into four equal gates, so the index is relative within each strain
Outline: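 The protein stability index of a peptide was calculated by multiplying its read frequency in each gate by that gate's number and adding the products. The peptides were tiled 17-residue stretches of yeast proteins, fused downstream of GFP on a Cherry-expressing plasmid and carried in yeast as a pooled library. Mid-log cultures in leucine-free medium were sorted into four equal gates by GFP/Cherry ratio, and each gate's plasmids were PCR-amplified and Illumina-sequenced.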

Question: Which results are given for KTSKDIAVLRSKEWFQL [FAS1]?
Answer: protein stability index (doa10∆): 2.01 ± 0.033; protein stability index (pdr5∆): 2.07 ± 0.031; protein stability index (san1∆): 1.91 ± 0.046; protein stability index (ubr1∆): 2.25 ± 0.032

Question: What does the source list for KSHVLLATPVQFELLSR [BRR2]?
Answer: protein stability index (doa10∆): 2.31 ± 0.057; protein stability index (pdr5∆): 1.58 ± 0.052; protein stability index (san1∆): 2.02 ± 0.066; protein stability index (ubr1∆): 2.08 ± 0.049

Question: With IDDKTQNDELTMGMRAL [DIS3] as the sequence, how does the protein stability index (doa10∆) read?
Answer: 2.74 ± 0.083

Question: And the protein stability index (pdr5∆)?
Answer: 2.83 ± 0.068

Question: What about the protein stability index (san1∆) of the same sequence?
Answer: 2.87 ± 0.058

Question: And the protein stability index (ubr1∆)?
Answer: 3 ± 0.059

Question: With GPSIYKTDPAGYYVGYK [SCL1] as the sequence, how does the protein stability index (doa10∆) read?
Answer: 3.17 ± 0.092

Question: And the protein stability index (pdr5∆)?
Answer: 3.4 ± 0.08

Question: And the protein stability index (san1∆)?
Answer: 3.33 ± 0.059

Question: And the protein stability index (ubr1∆)?
Answer: 3.38 ± 0.091

Question: With HTVTNSPNPTLQPVIPG [SNF5] as the sequence, how does the protein stability index (doa10∆) read?
Answer: 2.55 ± 0.052

Question: What about the protein stability index (pdr5∆) of the same sequence?
Answer: 2.32 ± 0.049

Question: And the protein stability index (san1∆)?
Answer: 2.53 ± 0.052

Question: What about the protein stability index (ubr1∆) of the same sequence?
Answer: 2.78 ± 0.042

Question: What does the source list for TPDDDEIDVENHDRINI [RPN8]?
Answer: protein stability index (doa10∆): 3.37 ± 0.26; protein stability index (pdr5∆): 3.5 ± 0.25; protein stability index (san1∆): 2.75 ± 0.17; protein stability index (ubr1∆): 2.68 ± 0.16

Question: What does the source list for LSQQQKDAQKKDIEKLT [YIL149C/MLP2]?
Answer: protein stability index (doa10∆): 2.79 ± 0.079; protein stability index (pdr5∆): 2.95 ± 0.069; protein stability index (san1∆): 2.78 ± 0.064; protein stability index (ubr1∆): 2.97 ± 0.075

Question: With LANEERLSNEMHALKNR [RGR1] as the sequence, how does the protein stability index (doa10∆) read?
Answer: 3.32 ± 0.12

Question: What about the protein stability index (pdr5∆) of the same sequence?
Answer: 3.42 ± 0.07

Question: What about the protein stability index (san1∆) of the same sequence?
Answer: 3.4 ± 0.059

Question: And the protein stability index (ubr1∆)?
Answer: 3.66 ± 0.13

Question: With CFPQYVNSKQGAINVAN [NNF1] as the sequence, how does the protein stability index (doa10∆) read?
Answer: 2.43 ± 0.29

Question: And the protein stability index (ubr1∆)?
Answer: 3.02 ± 0.16

Question: What does the source list for SPYGNLQNDLIHKIQND [RPN5]?
Answer: protein stability index (doa10∆): 2.02 ± 0.083; protein stability index (pdr5∆): 2.67 ± 0.053; protein stability index (san1∆): 2.82 ± 0.07; protein stability index (ubr1∆): 2.56 ± 0.058

Question: With VLPAATKKKSKFMTNST [ARP9] as the sequence, how does the protein stability index (doa10∆) read?
Answer: 2.74 ± 0.055

Question: What about the protein stability index (pdr5∆) of the same sequence?
Answer: 2.78 ± 0.046

Question: And the protein stability index (san1∆)?
Answer: 2.71 ± 0.047

Question: And the protein stability index (ubr1∆)?
Answer: 2.96 ± 0.039

Question: Which protein stability index (doa10∆) does the source give for FLKYYGAHKFLDTYLPE [SIR2] here?
Answer: 1.66 ± 0.06

Question: And the protein stability index (pdr5∆)?
Answer: 1.77 ± 0.061

Question: What about the protein stability index (san1∆) of the same sequence?
Answer: 1.37 ± 0.1

Question: What about the protein stability index (ubr1∆) of the same sequence?
Answer: 1.67 ± 0.052

Question: With PQWKRHLEEYGYLIQVL [YCS4] as the sequence, how does the protein stability index (doa10∆) read?
Answer: 2.27 ± 0.052

Question: What about the protein stability index (pdr5∆) of the same sequence?
Answer: 2.73 ± 0.057

Question: And the protein stability index (san1∆)?
Answer: 2.02 ± 0.095

Question: And the protein stability index (ubr1∆)?
Answer: 2.5 ± 0.047

Question: Which protein stability index (doa10∆) does the source give for HIQVNQAPKQRRRTYRA [RPL17A] here?
Answer: 1.89 ± 0.12

Question: And the protein stability index (pdr5∆)?
Answer: 2.34 ± 0.11

Question: And the protein stability index (san1∆)?
Answer: 2.38 ± 0.2

Question: And the protein stability index (ubr1∆)?
Answer: 3.28 ± 0.14

Question: With DERSQGEKNFTSAHLKL [SMC4] as the sequence, how does the protein stability index (doa10∆) read?
Answer: 3.17 ± 0.16

Question: And the protein stability index (pdr5∆)?
Answer: 3.4 ± 0.13

Question: And the protein stability index (san1∆)?
Answer: 3.14 ± 0.076

Question: What about the protein stability index (ubr1∆) of the same sequence?
Answer: 3.36 ± 0.11

Question: For GSGAANENPYNNGVSNL [COR1], which protein stability index (doa10∆) is on record?
Answer: 3.02 ± 0.17

Question: And the protein stability index (pdr5∆)?
Answer: 2.94 ± 0.14

Question: And the protein stability index (san1∆)?
Answer: 3.15 ± 0.11

Question: And the protein stability index (ubr1∆)?
Answer: 2.79 ± 0.17

Question: With GEITFDGIGGLTEQIRE [RPT4] as the sequence, how does the protein stability index (doa10∆) read?
Answer: 3.34 ± 0.12

Question: And the protein stability index (pdr5∆)?
Answer: 3.45 ± 0.099

Question: What about the protein stability index (san1∆) of the same sequence?
Answer: 3.21 ± 0.093

Question: And the protein stability index (ubr1∆)?
Answer: 3.54 ± 0.062

Question: With PSKKRRRDFGAPANKRP [SMD1] as the sequence, how does the protein stability index (doa10∆) read?
Answer: 2.57 ± 0.19

Question: What about the protein stability index (pdr5∆) of the same sequence?
Answer: 3.02 ± 0.1

Question: And the protein stability index (san1∆)?
Answer: 3.16 ± 0.12

Question: And the protein stability index (ubr1∆)?
Answer: 3.04 ± 0.09

Question: For KTYNCLHEKYLTEGGSI [SMC1], which protein stability index (doa10∆) is on record?
Answer: 3.03 ± 0.14

Question: And the protein stability index (pdr5∆)?
Answer: 3.05 ± 0.072

Question: And the protein stability index (san1∆)?
Answer: 2.52 ± 0.076

Question: What about the protein stability index (ubr1∆) of the same sequence?
Answer: 2.98 ± 0.069

Question: Which protein stability index (doa10∆) does the source give for YVSQIRKHKRVSPNAAP [YAR002W/NUP60] here?
Answer: 1.95 ± 0.084

Question: What about the protein stability index (pdr5∆) of the same sequence?
Answer: 1.64 ± 0.053

Question: What about the protein stability index (san1∆) of the same sequence?
Answer: 2.53 ± 0.085

Question: And the protein stability index (ubr1∆)?
Answer: 2.29 ± 0.081

Question: For DLVRDIDIDKLIQLGVK [SRP72], which protein stability index (san1∆) is on record?
Answer: 2.71 ± 0.15

Question: Which results are given for SEPIDLIIIEKKQKLIE [ITC1]?
Answer: protein stability index (san1∆): 2.87 ± 0.18; protein stability index (ubr1∆): 2.69 ± 0.13

Question: With REDEFGSIPSLTTQFVT [YDL088C/ASM4] as the sequence, how does the protein stability index (doa10∆) read?
Answer: 3 ± 0.066

Question: What about the protein stability index (pdr5∆) of the same sequence?
Answer: 2.92 ± 0.058

Question: And the protein stability index (san1∆)?
Answer: 3.06 ± 0.053

Question: And the protein stability index (ubr1∆)?
Answer: 3.2 ± 0.067

Question: Which results are given for DAENEWNVEKFKKDFEV [RPC40]?
Answer: protein stability index (doa10∆): 1.39 ± 0.12; protein stability index (pdr5∆): 1.7 ± 0.21; protein stability index (san1∆): 1.85 ± 0.16; protein stability index (ubr1∆): 1.82 ± 0.11

Question: With SAHQSPIMQTQMPLNSN [SNF2] as the sequence, how does the protein stability index (doa10∆) read?
Answer: 2.94 ± 0.11

Question: And the protein stability index (pdr5∆)?
Answer: 2.37 ± 0.091

Question: What about the protein stability index (san1∆) of the same sequence?
Answer: 2.54 ± 0.075

Question: What about the protein stability index (ubr1∆) of the same sequence?
Answer: 2.17 ± 0.053

Question: With DPWNKLKHTDYWYEQDS [RPB3] as the sequence, how does the protein stability index (ubr1∆) read?
Answer: 2.99 ± 0.12

Question: Which protein stability index (doa10∆) does the source give for GVEQLHYTGISQSACRE [SSN3] here?
Answer: 2.69 ± 0.089

Question: What about the protein stability index (pdr5∆) of the same sequence?
Answer: 2.38 ± 0.085

Question: And the protein stability index (san1∆)?
Answer: 2.66 ± 0.13

Question: What about the protein stability index (ubr1∆) of the same sequence?
Answer: 2.56 ± 0.099

Question: With NDINISSIENNINNNIN [MED2] as the sequence, how does the protein stability index (doa10∆) read?
Answer: 2.87 ± 0.044

Question: What about the protein stability index (pdr5∆) of the same sequence?
Answer: 3 ± 0.047

Question: And the protein stability index (san1∆)?
Answer: 2.86 ± 0.041

Question: What about the protein stability index (ubr1∆) of the same sequence?
Answer: 3.11 ± 0.039
